Reference: patent US20030103986A1 (ZymoGenetics, published 2003)

What was measured:
ZTNF4 [1] = target: T1, ZTNF4 (Homo sapiens (Human), UniProt Q9Y275 134-285, limits assumed, radioiodinated with 125I (Iodobeads) in the binding assays; unlabeled ZTNF4 used to determine nonspecific binding); assay: competitive binding: TACI-Fc against plate-coated TACI-N for 125I-ZTNF4 (20 ng/ml); average of three experiments
T1 construct: also called BAFF
Experimental: (§1) An N-terminal fragment of the TACI receptor, designated as “TACI-N,” was added to 96-well plates (100 μl at 0.1 μg/ml), and incubated overnight at 4° C. The plates were washed, blocked with Superblock (Pierce), and washed again. […] After incubation, the plates were washed and counted. Each determination was performed in triplicate.

ZTNF4 [2] = target: T1, ZTNF4; assay: competitive binding: TACI-Fc against plate-coated TACI-N for 125I-ZTNF4
Experimental: as §1

ZTNF4 [3] = target: T1, ZTNF4; assay: solution binding: 0.05 nM TACI-Fc with 0.4 pM to 1.5 nM 125I-ZTNF4, Pansorbin precipitation
Experimental: At a concentration of 0.05 nM, each TACI-Fc construct was incubated with 0.4 pM to 1.5 nM ¹²⁵I-ZTNF4 for 30 minutes at room temperature in a total volume of 0.25 ml/tube. A Pansorbin (Staph A) suspension was added to each tube, and after 15 minutes, the samples were centrifuged, washed twice, and the pellets counted. Nonspecific binding was determined by the addition of 130 nM unlabeled ZTNF4 to the ¹²⁵I-ZTNF4/TACI-Fc mix. Specific binding was calculated by subtracting the cpm bound in the presence of unlabeled ZTNF4 from the total cpm bound at each concentration of ¹²⁵I-ZTNF4. Each determination was performed in triplicate. Binding constants were calculated using GraphPad Prism software (MacIntosh v. 3.0).

Binder | IC50 (ZTNF4 [1]) [nM] | concentration giving complete inhibition (ZTNF4 [2]) [ng/mL] | Bmax (ZTNF4 [3]) [nM] | Kd (ZTNF4 [3]) [nM]
TACI (d1-29, d120-154)-Fc5 (Fc fusion) AMRSCPEEQYWDPLLGTCMSCKTICNHQSQRTCAAFCRSLSCRKEQGKFYDHLLRDCISCASICGQHPKQCAYFCENKLRSPVNLPPELREPKSSDKTHTCPPCPAPEAEGAPSVFLFPPKPKDTLMISRTPEVTCVVVDVSHEDPEVKFNWYVDGVEVHNAKTKPREEQYNSTYRVVSVLTVLHQDWLNGKEYKCKVSNKALPSSIEKTISKAKGQPREPQVYTLPPSRDELTKNQVSLTCLVKGFYPSDIAVEWESNGQPENNYKTTPPVLDSDGSFFLYSKLTVDKSRWQQGNVFSCSVMHEALHNHYTQKSLSLSPGK | 2.21 | ~100 | 0.021 | 0.092
TACI (d1-29, d107-154)-Fc5 (Fc fusion) AMRSCPEEQYWDPLLGTCMSCKTICNHQSQRTCAAFCRSLSCRKEQGKFYDHLLRDCISCASICGQHPKQCAYFCENEPKSSDKTHTCPPCPAPEAEGAPSVFLFPPKPKDTLMISRTPEVTCVVVDVSHEDPEVKFNWYVDGVEVHNAKTKPREEQYNSTYRVVSVLTVLHQDWLNGKEYKCKVSNKALPSSIEKTISKAKGQPREPQVYTLPPSRDELTKNQVSLTCLVKGFYPSDIAVEWESNGQPENNYKTTPPVLDSDGSFFLYSKLTVDKSRWQQGNVFSCSVMHEALHNHYTQKSLSLSPGK | 4.95 | ~100 | 0.01 | 0.121
TACI (d1-29, d111-154)-Fc5 (Fc fusion) AMRSCPEEQYWDPLLGTCMSCKTICNHQSQRTCAAFCRSLSCRKEQGKFYDHLLRDCISCASICGQHPKQCAYFCENKLRSEPKSSDKTHTCPPCPAPEAEGAPSVFLFPPKPKDTLMISRTPEVTCVVVDVSHEDPEVKFNWYVDGVEVHNAKTKPREEQYNSTYRVVSVLTVLHQDWLNGKEYKCKVSNKALPSSIEKTISKAKGQPREPQVYTLPPSRDELTKNQVSLTCLVKGFYPSDIAVEWESNGQPENNYKTTPPVLDSDGSFFLYSKLTVDKSRWQQGNVFSCSVMHEALHNHYTQKSLSLSPGK | 2.31 | ~100 | 0.018 | 0.115
TACI (d1-29)-Fc5 (Fc fusion, Made in CHO DG44 cells) AMRSCPEEQYWDPLLGTCMSCKTICNHQSQRTCAAFCRSLSCRKEQGKFYDHLLRDCISCASICGQHPKQCAYFCENKLRSPVNLPPELRRQRSGEVENNSDNSGRYQGLEHRGSEASPALPGLKEPKSSDKTHTCPPCPAPEAEGAPSVFLFPPKPKDTLMISRTPEVTCVVVDVSHEDPEVKFNWYVDGVEVHNAKTKPREEQYNSTYRVVSVLTVLHQDWLNGKEYKCKVSNKALPSSIEKTISKAKGQPREPQVYTLPPSRDELTKNQVSLTCLVKGFYPSDIAVEWESNGQPENNYKTTPPVLDSDGSFFLYSKLTVDKSRWQQGNVFSCSVMHEALHNHYTQKSLSLSPGK | 2.07 | ~100 | 0.023 | 0.134
